Key:
[1] = target: T1, cynomolgus monkey GITR expressed on the cell surface (Macaca fascicularis (cynomolgus monkey)); assay: flow cytometry on Jurkat/hCD20/MfGITR cells
T1 construct: whole, on cells; also called MfGITR; Jurkat/hCD20/MfGITR cells
Protocol: (§1) FIG. 5A, FIG. 5B, and FIG. 5C depict cell-surface binding of mAb1 and IgG1 isotype control at a range of concentrations (18 pM to 300 nM) on Jurkat/hCD20 (FIG. 5A), Jurkat/hCD20/hGITR (FIG. 5B), and Jurkat/hCD20/MfGITR (FIG. 5C) cells. Binding was detected using an Alexa647-labeled anti-human IgG by flow cytometry. Fluorescence intensity was plotted as geometric MFI. h, Human; Mf, Macaca fascicularis (cynomolgus monkey).
(§2) Flow cytometry was used to evaluate mAb1 binding to Jurkat/hCD20/hGITR cells and Jurkat/hCD20/MfGITR cells. Jurkat/hCD20 cells were used as a negative control cell line for GITR binding. Cells were added to a 96-well V-bottom plate (2×10⁵ to 4×10⁵ cells/well) and incubated in Fc block solution, followed by successive incubation on ice with primary antibody (mAb1 or IgG1 isotype control) at final concentrations ranging from 18 pM to 300 nM and a secondary antibody (AF647-conjugated anti-human IgG) at 5 μg/mL. […] Data were analyzed with Flow.lo software. For EC₅₀ (effective concentration at 50% activity) determinations, measured geometric MFI values were analyzed using a 4-parameter logistic equation over a 9-point response curve with GraphPad Prism. The fold binding was determined by taking the ratio of the highest MFI on the curve to the MFI of the wells containing secondary antibody only.

[2] = target: T2, human GITR expressed on the cell surface (human, UniProt Q9Y5U5 26-241); assay: cell-based or functional assay
T2 sequence: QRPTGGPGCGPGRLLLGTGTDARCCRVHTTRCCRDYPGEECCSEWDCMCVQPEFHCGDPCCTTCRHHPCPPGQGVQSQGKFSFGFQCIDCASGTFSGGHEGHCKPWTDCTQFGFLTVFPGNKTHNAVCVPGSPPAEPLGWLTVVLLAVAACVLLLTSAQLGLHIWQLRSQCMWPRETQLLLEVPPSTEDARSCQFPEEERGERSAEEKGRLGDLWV

[3] = target: T2, human GITR expressed on the cell surface; assay: flow cytometry on Jurkat/hCD20/hGITR cells
Protocol: as §1, §2

[4] = target: T1, cynomolgus monkey GITR expressed on the …; assay: cell-based or functional assay
[5] = target: T2, human GITR expressed on the cell surface; assay: cell-based or functional assay; remark: listed apart in the source
[6] = target: T3, hGITR.mmH (soluble monomeric recombinant human GITR ectodomain protein) (human); assay: blocking ELISA: 1.5 nM hGITR.mmH pre-incubated with antibody, binding to plate-coated hGITR-L
T3 construct: also called monomeric human GITR
T3 chain: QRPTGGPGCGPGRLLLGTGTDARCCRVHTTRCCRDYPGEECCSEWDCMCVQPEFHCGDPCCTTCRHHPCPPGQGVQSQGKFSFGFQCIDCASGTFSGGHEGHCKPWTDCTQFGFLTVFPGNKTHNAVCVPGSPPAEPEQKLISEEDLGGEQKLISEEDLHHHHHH

[7] = target: T1, cynomolgus monkey GITR expressed on the …; assay: flow cytometry on Jurkat/hCD20/MfGITR cells; max MFI over secondary antibody alone
Protocol: as §2, with “μg/mL. Cells were then stained with LIVE/DEAD Fixable Green Dead Cell Stain according to the manufacturer's instructions.” for “μg/mL.”
^a The maximum MFI was the highest mean MFI value within the concentration range tested (18 pM to 300 nM). ^b Fold binding was calculated as the maximum MFI above background (secondary antibody alone). h, Human; Mf, Macaca fascicularis (cynomolgus monkey); ND, Not determined because concentration-dependent binding was not observed

[8] = target: T1, cynomolgus monkey GITR expressed on the …; assay: cell-based or functional assay; remark: listed apart in the source
[9] = target: T2, human GITR expressed on the cell surface; assay: cell-based or functional assay; remark: listed apart in the source
[10] = target: T4, Jurkat/hCD20 cells (human CD20, no GITR; negative control cell line) (human, UniProt P11836 1-297); assay: flow cytometry on Jurkat/hCD20 cells
T4 construct: whole, on cells; Control cell line without engineered GITR; the only named engineered protein on it is hCD20
T4 sequence (looked up): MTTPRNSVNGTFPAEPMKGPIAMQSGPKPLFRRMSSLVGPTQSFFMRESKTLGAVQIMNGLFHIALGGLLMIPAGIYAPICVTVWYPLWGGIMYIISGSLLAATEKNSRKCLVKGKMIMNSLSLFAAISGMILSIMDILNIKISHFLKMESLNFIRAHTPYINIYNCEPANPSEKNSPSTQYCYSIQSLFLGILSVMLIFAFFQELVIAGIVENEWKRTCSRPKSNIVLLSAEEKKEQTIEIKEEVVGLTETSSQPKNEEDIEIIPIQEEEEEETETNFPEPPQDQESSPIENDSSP
Protocol: as §1, §2

B1: mAb1 (antibody, human IgG1, kappa, V domains shown)
VH: QVQLQESGPGLVKPSETLSLTCIVSGGSISGYFWNWIRQPPGKGLEWIGYIYYSGTTIYNPSLKSRFTISLDTSKNQFSLKLTSVTAADTAVYYCARESYDPSPRYFDHWGQGTLVTVSS
VL: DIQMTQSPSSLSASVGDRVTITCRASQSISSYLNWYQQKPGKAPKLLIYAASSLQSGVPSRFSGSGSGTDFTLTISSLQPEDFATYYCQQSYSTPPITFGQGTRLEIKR
notes: Human IgG1; N101D variant of CompAb1; also called N101D Variant; N101D
[1]
  EC50: 3.52 nM
[2]
  EC50, anti-CD3-mediated primary CD4+ T-cell proliferation, Donor 1900G: 0.43 nM
  EC50, anti-CD3-mediated primary CD4+ T-cell proliferation, Donor 2000U: 0.0391 nM
  EC50, anti-CD3-mediated primary CD4+ T-cell proliferation, Donor 3600Y: 17.2 nM
  EC50, anti-CD3-mediated primary CD4+ T-cell proliferation, Donor 3800U: 0.107 nM
  EC50, anti-CD3-mediated primary CD4+ T-cell proliferation, Donor 34001: 0.193 nM
  Fold Change in Activity, anti-CD3-mediated primary CD4+ T-cell proliferation, Donor 1900G: 3.14 fold
  Fold Change in Activity, anti-CD3-mediated primary CD4+ T-cell proliferation, Donor 2000U: 2.45 fold
  Fold Change in Activity, anti-CD3-mediated primary CD4+ T-cell proliferation, Donor 3600Y: 2.3 fold
  Fold Change in Activity, anti-CD3-mediated primary CD4+ T-cell proliferation, Donor 3800U: 2.45 fold
  Fold Change in Activity, anti-CD3-mediated primary CD4+ T-cell proliferation, Donor 34001: 2.62 fold
  Fold Change in Activity, anti-CD3-mediated primary CD4+ T-cell proliferation, Donor 41003: 2.54 fold
[3]
  EC50: 1.96 nM
[4]
  EC50, ADCC against Jurkat/hCD20/MfGITR, Donor 6500V NK cells: 0.0108 nM
  EC50, ADCC against Jurkat/hCD20/MfGITR, Donor 6700R NK cells: 0.0121 nM
[5]
  EC50, ADCC against Jurkat/hCD20/hGITR, Donor 6500V NK cells: 0.0122 nM
  EC50, ADCC against Jurkat/hCD20/hGITR, Donor 6700R NK cells: 0.013 nM
[6]
  IC50: 6.66 nM
[7]
  Fold Binding: 277 fold
[8]
  EC50, ADCP of Jurkat/hCD20/MfGITR: 0.51 nM
  Fold Change in Activity, ADCP of Jurkat/hCD20/MfGITR: 6.98 fold
[9]
  Fold Change in Activity, ADCP of Jurkat/hCD20/hGITR: 5.92 fold
[10]
  binding result: no binding (tested: 18 pM to 300 nM)
